What was measured:
[1] = target: the molecule itself; test: thioflavin T fluorescence
[2] = target: the molecule itself; test: solution NMR, decay of monomer signals over time

Protein	binding result [1]	binding result [2]
human RIPK1 RHIM-harboring domain (residues 496-583), wild type (domain or fragment, UniProt Q13546 496-583, looked up) HMPSLHNIPVPETNYLGNTPTMPFSSLPPTDESIKYTIYNSTGIQIGAYNYMEIGGTSSSLLDSTNTNFKEEPAAKYQAIFDNTTSLT	binds	–
human RIPK1 RHIM-harboring domain (residues 496-583), N545D variant (domain or fragment, UniProt Q13546 496-583, looked up) HMPSLHNIPVPETNYLGNTPTMPFSSLPPTDESIKYTIYNSTGIQIGAYDYMEIGGTSSSLLDSTNTNFKEEPAAKYQAIFDNTTSLT	–	binds

From paper PMC12575786 (Nature communications, 2025)
